Assay results published in patent US20190054150A1 (AEQUUS BIOPHARMA, published 2019).
Square brackets hold non-standard residues; d marks the D form. Ends that are not written are not given here. Nle = CCCC[C@H](N)C(=O)O

Assays:
Assay in all cases: cell-based or functional assay
MCR4 = MCR4 (human, UniProt P32245 1-332)
MCR1 = MCR1 (human, UniProt Q01726 1-317)
MCR3 = MCR3 (human, UniProt P41968 1-323)
MCR5 = MCR5 (human, UniProt P33032 1-325)
Sequence of MCR5 (P33032 whole entry): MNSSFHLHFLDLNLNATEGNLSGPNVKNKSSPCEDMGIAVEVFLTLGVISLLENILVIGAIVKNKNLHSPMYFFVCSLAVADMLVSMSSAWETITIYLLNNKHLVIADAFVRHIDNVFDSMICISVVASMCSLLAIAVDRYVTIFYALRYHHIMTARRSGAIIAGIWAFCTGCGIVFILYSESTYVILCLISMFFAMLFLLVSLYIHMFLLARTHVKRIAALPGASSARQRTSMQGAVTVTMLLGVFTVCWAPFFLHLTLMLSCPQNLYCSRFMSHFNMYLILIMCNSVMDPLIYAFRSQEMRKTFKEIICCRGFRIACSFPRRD

Sequence of MCR3 (P41968 whole entry): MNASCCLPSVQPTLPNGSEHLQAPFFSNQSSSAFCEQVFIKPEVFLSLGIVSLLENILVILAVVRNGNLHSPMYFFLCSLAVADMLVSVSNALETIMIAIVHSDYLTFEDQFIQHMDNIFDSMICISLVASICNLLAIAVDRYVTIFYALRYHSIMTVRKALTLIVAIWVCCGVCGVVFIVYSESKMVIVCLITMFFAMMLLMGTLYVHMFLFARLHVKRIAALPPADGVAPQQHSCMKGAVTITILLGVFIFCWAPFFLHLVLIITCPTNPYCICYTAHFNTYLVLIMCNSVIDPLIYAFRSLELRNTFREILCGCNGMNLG
Sequence of MCR1 (Q01726 whole entry): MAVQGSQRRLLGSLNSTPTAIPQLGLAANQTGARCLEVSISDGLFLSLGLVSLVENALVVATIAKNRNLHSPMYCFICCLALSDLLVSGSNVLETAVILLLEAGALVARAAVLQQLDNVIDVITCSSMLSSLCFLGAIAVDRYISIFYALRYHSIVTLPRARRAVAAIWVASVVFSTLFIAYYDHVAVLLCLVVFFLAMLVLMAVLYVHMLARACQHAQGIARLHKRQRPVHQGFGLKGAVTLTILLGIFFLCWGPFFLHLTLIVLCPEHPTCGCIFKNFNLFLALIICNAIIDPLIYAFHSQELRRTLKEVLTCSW
Sequence of MCR4 (P32245 whole entry): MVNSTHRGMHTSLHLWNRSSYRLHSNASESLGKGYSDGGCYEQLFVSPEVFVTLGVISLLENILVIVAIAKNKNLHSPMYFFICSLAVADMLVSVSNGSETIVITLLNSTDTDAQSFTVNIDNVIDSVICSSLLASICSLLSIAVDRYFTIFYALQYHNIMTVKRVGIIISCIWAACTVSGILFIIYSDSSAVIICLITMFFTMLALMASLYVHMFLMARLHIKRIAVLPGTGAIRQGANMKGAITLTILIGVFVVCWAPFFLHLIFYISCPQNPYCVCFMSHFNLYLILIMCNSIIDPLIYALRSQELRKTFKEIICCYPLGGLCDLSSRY

| Binder | MCR4 EC50 (nM); cAMP production, LANCE cAMP assay, CHO-MCR4 cells, cell pool B (MCR4) | MCR1 EC50 (nM); cAMP production, LANCE cAMP assay, CHO-MCR1 cells, cell pool B (MCR1) | MCR3 EC50 (nM); cAMP production, LANCE cAMP assay, CHO-MCR3 cells, cell pool B (MCR3) | MCR4 EC50 (nM); cAMP production, LANCE cAMP assay, CHO-MCR4 cells, cell pool C (MCR4) | MCR1 EC50 (nM); cAMP production, LANCE cAMP assay, CHO-MCR1 cells, cell pool C (MCR1) | MCR3 EC50 (nM); cAMP production, LANCE cAMP assay, CHO-MCR3 cells, cell pool C (MCR3) | MCR5 EC50 (nM); cAMP production, LANCE cAMP assay, CHO-MCR5 cells, cell pool C (MCR5) | MCR1 EC50 (nM); cAMP production, LANCE cAMP assay, CHO-MCR1 cells, cell pool B (second value printed below the first) (MCR1) |
| --- | --- | --- | --- | --- | --- | --- | --- | --- |
| NDP-α-MSH-linker-MMP (broad) site-linker-ACTH1-24 (peptide) peptide: Ac-SYS[Nle]EH[dF]RWGKPVGGGGSPAGLVAGGGGSSYSMEHFRWGKPVGKKRRPVKVYP | 1.9 nM | 0.295 nM | 1.5 nM | – | – | – | – | – |
| SYSMEHFRWGKPVGKKAAAVKVYPGGGGSGGSYS[Nle]EH[dF]RWGKPV (ends and bridges not checked) [ACTH1-24-point-3-5-7aa-NDP-α-MSH] | – | – | – | 2.4 nM | 0.41 nM | 0.72 nM | 8.5 nM | – |
| SYSMEHFRWGKPVGAARRPVKVYPSYS[Nle]EH[dF]RWGKPV (ends and bridges not checked) [ACTH1-24-point-1-2-NDP-α-MSH] | – | – | – | 1.4 nM | 0.28 nM | 0.72 nM | 21 nM | – |
| ACTH1-24-natural N-terminal spacer-α-MSH (peptide) peptide: SYSMEHFRWGKPVGKKRRPVKVYPPLPEGGPEPRSDGAKPGPREGKRSYSMEHFRWGKPV | > 20 nM | 0.82 nM | 6.2 nM | – | – | – | – | – |
| SYSMEHFRWGKPVGKKRRAVKVYPSYS[Nle]EH[dF]RWGKPV [ACTH1-24-point-5-NDP-α-MSH] | – | – | – | 3.4 nM | 0.44 nM | 1.5 nM | 28 nM | – |
| SYSXEHXRWGKPVGKKRRPVKVYP (Nle and DPhe as printed: SYS-Nle-EH-DPhe-RWGKPVGKKRRPVKVYP) [NDP-ACTH] | – | – | – | 0.22 nM | 0.11 nM | 0.21 nM | 1.1 nM | – |
| ACTH1-24-natural C-terminal spacer-α-MSH (peptide) peptide: SYSMEHFRWGKPVGKKRRPVKVYPELTGQRLREGDGPDGPADDGAGASYSMEHFRWGKPV | > 20 nM | 1.02 nM | 22 nM | – | – | – | – | – |
| ACTH1-24-natural C-terminal spacer-NDP-α-MSH (ends and bridges not checked) peptide: SYSMEHFRWGKPVGKKRRPVKVYPELTGQRLREGDGPDGPADDGAGASYS[Nle]EH[dF]RWGKPV | 8.7 nM | 0.8 nM | 1.66 nM | – | – | – | – | – |
| SYSMEHFRWGKPVGKKRRPVKVYPGGGGSGGSYS[Nle]EH[dF]RWGKPV (ends and bridges not checked) [ACTH1-24-7aa-NDP-α-MSH] | – | – | – | 1.5 nM | 0.24 nM | 0.85 nM | 13 nM | – |
| SYSMEHFRWGKPVGAARRPVKVYP [ACTH1-24-point-1-2] | – | – | – | 62 nM | 0.43 nM | 10 nM | 275 nM | – |
| SYSMEHFRWGKPVGKKRRPVKVYPGGGSSYS[Nle]EH[dF]RWGKPV (ends and bridges not checked) [ACTH1-24-4aa-NDP-α-MSH] | – | – | – | 1.9 nM | 0.41 nM | 0.92 nM | 9.3 nM | – |
| ACTH1-24-natural N-terminal spacer-NDP-α-MSH (ends and bridges not checked) peptide: SYSMEHFRWGKPVGKKRRPVKVYPPLPEGGPEPRSDGAKPGPREGKRSYS[Nle]EH[dF]RWGKPV | 1.6 nM | 0.63 nM | 0.62 nM | – | – | – | – | – |
| ACTH1-24-linker-MMP (broad) site-linker-NDP-α-MSH (ends and bridges not checked) peptide: SYSMEHFRWGKPVGKKRRPVKVYPGGGGSPAGLVAGGGGSSYS[Nle]EH[dF]RWGKPV | 4.8 nM | 0.528 nM | 1 nM | – | – | – | – | 0.36 nM |
| SYSMEHFRWGKPVGKKAAAVKVYPGGGSSYS[Nle]EH[dF]RWGKPV (ends and bridges not checked) [ACTH1-24-point-3-5-4aa-NDP-α-MSH] | – | – | – | 2.4 nM | 0.3 nM | 0.61 nM | 14 nM | – |
| SYSMEHFRWGKPVGKKRRAVKVYPGGGGSGGGGSSYS[Nle]EH[dF]RWGKPV [ACTH1-24-point-5-10aa-NDP-α-MSH] | – | – | – | 2.8 nM | 0.69 nM | 1 nM | 11 nM | – |
| SYSMEHFRWGKPVGKKRRPVKVYPSYS[Nle]EH[dF]RWGKPV (ends and bridges not checked) [ACTH1-24-NDP-α-MSH] | – | – | – | 2.3 nM | 0.28 nM | 1.5 nM | 24 nM | – |
| SYSMEHFRWGKPVGKKRRAVKVYPGGGGSGGSYS[Nle]EH[dF]RWGKPV [ACTH1-24-point-5-7aa-NDP-α-MSH] | – | – | – | 2.1 nM | 0.22 nM | 0.76 nM | 12 nM | – |
| SYSMEHFRWGKPVGKKRRAVKVYP [ACTH1-24-point-5] | – | – | – | 60 nM | 0.31 nM | 10 nM | > 100 nM | – |
| SYSMEHFRWGKPVGKKRRAVKVYPGGGSSYS[Nle]EH[dF]RWGKPV [ACTH1-24-point-5-4aa-NDP-α-MSH] | – | – | – | 1.8 nM | 0.32 nM | 0.68 nM | 20 nM | – |
| SYSMEHFRWGKPVGKKRRPVKVYPGGGGSRRKRSYS[Nle]EH[dF]RWGKPV [ACTH1-24-proconvertase-NDP-α-MSH] | 1.6 nM | 0.44 nM | 0.51 nM | – | – | – | – | – |
| SYSMEHFRWGKPVGAARRPVKVYPGGGGSGGSYS[Nle]EH[dF]RWGKPV (ends and bridges not checked) [ACTH1-24-point-1-2-7aa-NDP-α-MSH] | – | – | – | 2.3 nM | 0.3 nM | 0.47 nM | 10 nM | – |
| SYSMEHFRWGKPVGKKAAAVKVYP [ACTH1-24-point-3-5] | – | – | – | 128 nM | 0.54 nM | 14 nM | > 100 nM | – |
| SYSMEHFRWGKPVGKKAAAVKVYPSYS[Nle]EH[dF]RWGKPV [ACTH1-24-point-3-5-NDP-α-MSH] | – | – | – | 2.2 nM | 0.32 nM | 0.92 nM | 25 nM | – |
| SYSMEHFRWGKPVGKKRRPVKVYPGGGGSRRKRSYSMEHFRWGKPV [ACTH1-24-proconvertase-α-MSH] | 26 nM | 0.92 nM | 6.1 nM | – | – | – | – | – |
| SYSMEHFRWGKPVGAARRPVKVYPGGGSSYS[Nle]EH[dF]RWGKPV (ends and bridges not checked) [ACTH1-24-point-1-2-4aa-NDP-α-MSH] | – | – | – | 1.7 nM | 0.25 nM | 0.42 nM | 11 nM | – |
